Data taken from IntAct's records for PubMed 31515488.

Legend:
dpyl5_human DPYSL5 [1] = molecular target: T1, dpyl5_human DPYSL5 (UniProt Q9BPU6)
T1 sequence: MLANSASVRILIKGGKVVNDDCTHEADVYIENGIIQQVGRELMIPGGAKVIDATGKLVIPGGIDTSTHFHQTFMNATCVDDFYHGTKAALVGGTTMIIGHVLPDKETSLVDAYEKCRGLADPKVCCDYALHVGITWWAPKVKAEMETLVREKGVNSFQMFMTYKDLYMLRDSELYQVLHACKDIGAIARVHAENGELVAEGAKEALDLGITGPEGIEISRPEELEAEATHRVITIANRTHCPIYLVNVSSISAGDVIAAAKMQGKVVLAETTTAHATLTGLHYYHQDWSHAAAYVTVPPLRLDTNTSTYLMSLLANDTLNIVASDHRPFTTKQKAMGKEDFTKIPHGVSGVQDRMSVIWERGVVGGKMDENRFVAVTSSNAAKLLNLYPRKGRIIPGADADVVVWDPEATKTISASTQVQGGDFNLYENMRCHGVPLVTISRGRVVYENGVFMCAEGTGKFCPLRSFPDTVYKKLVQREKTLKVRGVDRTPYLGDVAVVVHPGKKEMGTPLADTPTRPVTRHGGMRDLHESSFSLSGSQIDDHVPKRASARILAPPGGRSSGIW

gors2_human GORASP2 [2] = molecular target: gors2_human GORASP2 (UniProt Q9H8Y8)
dpyl3_human DPYSL3 [3] = molecular target: dpyl3_human DPYSL3 (UniProt Q14195)
dpyl3_human DPYSL3, sequence (Q14195 whole entry): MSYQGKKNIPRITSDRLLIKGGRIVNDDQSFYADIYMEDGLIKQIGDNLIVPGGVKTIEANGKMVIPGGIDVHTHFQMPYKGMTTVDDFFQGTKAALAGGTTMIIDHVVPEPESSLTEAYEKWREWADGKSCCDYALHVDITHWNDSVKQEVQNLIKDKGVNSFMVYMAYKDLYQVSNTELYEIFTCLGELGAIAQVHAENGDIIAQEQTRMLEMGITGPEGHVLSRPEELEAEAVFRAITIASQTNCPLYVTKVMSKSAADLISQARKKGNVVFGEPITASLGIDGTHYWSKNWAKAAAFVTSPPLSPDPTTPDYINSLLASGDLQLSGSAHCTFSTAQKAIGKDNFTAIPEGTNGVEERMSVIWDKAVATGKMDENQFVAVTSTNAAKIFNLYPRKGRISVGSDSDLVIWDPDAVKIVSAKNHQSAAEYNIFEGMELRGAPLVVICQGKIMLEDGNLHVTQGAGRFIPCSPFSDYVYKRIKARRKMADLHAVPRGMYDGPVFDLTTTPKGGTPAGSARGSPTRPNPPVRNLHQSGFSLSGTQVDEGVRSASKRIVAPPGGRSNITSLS

dpyl2_human DPYSL2 = dpyl2_human DPYSL2 (UniProt Q16555)
trim1_human MID2 = trim1_human MID2 (UniProt Q9UJV3)
trim1_human MID2, sequence (Q9UJV3 whole entry): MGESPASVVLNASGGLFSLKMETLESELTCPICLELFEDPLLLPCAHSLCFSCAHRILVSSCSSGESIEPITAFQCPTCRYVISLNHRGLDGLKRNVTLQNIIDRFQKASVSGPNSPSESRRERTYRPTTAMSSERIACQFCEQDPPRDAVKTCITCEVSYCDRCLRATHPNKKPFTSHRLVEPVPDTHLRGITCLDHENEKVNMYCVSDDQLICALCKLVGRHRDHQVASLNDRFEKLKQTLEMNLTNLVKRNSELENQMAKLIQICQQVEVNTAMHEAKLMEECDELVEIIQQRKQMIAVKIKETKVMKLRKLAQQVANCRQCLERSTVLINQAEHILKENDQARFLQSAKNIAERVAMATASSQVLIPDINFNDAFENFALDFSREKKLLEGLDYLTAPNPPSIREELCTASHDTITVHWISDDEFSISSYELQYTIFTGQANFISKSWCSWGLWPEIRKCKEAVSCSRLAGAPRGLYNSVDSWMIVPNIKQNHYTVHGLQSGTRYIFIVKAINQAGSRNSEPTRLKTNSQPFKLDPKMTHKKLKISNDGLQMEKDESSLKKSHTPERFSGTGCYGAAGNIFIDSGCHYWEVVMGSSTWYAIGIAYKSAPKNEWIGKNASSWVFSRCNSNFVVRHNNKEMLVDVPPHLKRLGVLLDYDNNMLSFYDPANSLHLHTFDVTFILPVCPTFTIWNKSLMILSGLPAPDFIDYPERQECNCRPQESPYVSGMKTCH

mtus2_human MTUS2 = mtus2_human MTUS2 (UniProt Q5JR59)
mtus2_human MTUS2, sequence (Q5JR59 whole entry): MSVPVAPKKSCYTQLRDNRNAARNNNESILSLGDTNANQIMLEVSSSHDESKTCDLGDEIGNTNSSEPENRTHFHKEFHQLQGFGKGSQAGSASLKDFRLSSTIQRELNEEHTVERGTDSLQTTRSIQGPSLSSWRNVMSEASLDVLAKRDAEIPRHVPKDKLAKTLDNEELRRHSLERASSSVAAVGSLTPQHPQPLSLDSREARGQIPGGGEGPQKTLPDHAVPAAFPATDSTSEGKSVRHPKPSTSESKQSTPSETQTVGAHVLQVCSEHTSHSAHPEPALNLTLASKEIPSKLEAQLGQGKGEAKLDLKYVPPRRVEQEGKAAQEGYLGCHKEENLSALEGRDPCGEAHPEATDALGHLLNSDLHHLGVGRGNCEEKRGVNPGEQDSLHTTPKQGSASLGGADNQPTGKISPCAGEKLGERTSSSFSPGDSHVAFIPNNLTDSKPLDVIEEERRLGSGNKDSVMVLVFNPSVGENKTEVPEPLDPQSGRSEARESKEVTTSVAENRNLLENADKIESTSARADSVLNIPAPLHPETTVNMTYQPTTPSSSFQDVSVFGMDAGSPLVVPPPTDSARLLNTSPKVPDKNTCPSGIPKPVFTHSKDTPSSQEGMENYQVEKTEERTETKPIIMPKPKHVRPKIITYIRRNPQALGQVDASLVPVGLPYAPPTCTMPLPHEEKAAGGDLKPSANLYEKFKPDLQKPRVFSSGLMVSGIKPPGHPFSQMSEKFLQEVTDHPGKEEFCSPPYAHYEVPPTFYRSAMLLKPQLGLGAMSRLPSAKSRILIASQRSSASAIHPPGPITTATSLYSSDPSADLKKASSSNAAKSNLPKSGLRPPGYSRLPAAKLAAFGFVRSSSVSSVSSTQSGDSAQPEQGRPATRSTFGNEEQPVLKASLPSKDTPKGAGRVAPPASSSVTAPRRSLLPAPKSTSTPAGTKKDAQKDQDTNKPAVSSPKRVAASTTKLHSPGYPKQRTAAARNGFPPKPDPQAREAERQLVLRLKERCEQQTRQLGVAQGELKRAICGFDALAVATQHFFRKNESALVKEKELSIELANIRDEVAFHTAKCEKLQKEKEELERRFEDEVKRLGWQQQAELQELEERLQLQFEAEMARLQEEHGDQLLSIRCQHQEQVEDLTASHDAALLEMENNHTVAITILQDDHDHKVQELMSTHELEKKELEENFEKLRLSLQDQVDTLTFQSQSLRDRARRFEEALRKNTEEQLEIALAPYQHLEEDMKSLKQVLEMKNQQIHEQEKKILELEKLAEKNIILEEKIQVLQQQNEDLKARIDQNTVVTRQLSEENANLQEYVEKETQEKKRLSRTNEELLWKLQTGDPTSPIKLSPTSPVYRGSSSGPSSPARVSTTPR

gors2_human GORASP2 [4] = molecular target: gors2_human GORASP2 (UniProt Q9H8Y8); remark: listed apart in the source
dpyl5_human DPYSL5 [5] = molecular target: T1, dpyl5_human DPYSL5; remark: listed apart in the source
dpyl3_human DPYSL3 [6] = molecular target: dpyl3_human DPYSL3 (UniProt Q14195); remark: listed apart in the source
otx1_human OTX1 = otx1_human OTX1 (UniProt P32242)
otx1_human OTX1, sequence (P32242 whole entry): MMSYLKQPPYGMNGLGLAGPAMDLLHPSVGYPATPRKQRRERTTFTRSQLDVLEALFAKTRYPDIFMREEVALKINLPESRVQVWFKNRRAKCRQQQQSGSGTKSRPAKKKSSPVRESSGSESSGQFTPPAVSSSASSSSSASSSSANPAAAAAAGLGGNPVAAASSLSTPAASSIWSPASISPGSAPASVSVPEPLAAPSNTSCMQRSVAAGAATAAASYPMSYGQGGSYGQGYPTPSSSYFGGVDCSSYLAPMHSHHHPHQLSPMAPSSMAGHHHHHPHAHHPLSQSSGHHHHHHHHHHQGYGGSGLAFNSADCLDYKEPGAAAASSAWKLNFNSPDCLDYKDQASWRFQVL

cep70_human CEP70 = cep70_human CEP70 (UniProt Q8NHQ1)
cep70_human CEP70, sequence (Q8NHQ1 whole entry): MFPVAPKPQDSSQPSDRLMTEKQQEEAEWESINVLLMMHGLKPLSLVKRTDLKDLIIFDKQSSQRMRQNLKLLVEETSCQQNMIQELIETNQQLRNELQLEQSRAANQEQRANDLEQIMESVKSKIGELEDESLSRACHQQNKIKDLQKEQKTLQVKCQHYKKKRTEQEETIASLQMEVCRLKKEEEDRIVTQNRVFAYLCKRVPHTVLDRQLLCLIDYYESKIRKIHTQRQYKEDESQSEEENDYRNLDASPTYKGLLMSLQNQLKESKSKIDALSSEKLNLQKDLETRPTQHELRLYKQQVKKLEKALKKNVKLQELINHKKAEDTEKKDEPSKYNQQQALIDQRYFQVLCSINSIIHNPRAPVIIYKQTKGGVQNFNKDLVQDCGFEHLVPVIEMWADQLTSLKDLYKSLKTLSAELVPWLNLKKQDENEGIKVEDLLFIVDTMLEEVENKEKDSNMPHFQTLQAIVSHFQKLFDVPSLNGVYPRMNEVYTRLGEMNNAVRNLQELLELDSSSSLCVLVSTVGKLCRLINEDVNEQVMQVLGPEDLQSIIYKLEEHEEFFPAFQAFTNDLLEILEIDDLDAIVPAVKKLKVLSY

fxl18_human FBXL18 = fxl18_human FBXL18 (UniProt Q96ME1)
erep1_human ENTREP1 = erep1_human ENTREP1 (UniProt Q15884)
pdli7_human PDLIM7 = pdli7_human PDLIM7 (UniProt Q9NR12)
pdli7_human PDLIM7, sequence (Q9NR12 whole entry): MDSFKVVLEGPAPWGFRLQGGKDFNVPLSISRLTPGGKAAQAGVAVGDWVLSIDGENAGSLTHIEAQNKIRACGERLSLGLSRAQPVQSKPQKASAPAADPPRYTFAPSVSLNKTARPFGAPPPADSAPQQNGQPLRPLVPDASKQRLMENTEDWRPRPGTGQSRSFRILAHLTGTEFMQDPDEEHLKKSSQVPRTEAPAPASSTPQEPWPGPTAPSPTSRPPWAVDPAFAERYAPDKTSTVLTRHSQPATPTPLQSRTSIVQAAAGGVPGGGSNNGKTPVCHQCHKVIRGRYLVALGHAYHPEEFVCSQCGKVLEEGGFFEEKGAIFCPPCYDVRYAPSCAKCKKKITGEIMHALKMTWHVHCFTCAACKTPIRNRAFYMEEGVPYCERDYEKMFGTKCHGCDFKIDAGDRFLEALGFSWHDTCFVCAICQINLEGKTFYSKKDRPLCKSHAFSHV

hnrl1_human HNRNPUL1 = hnrl1_human HNRNPUL1 (UniProt Q9BUJ2)
zn446_human ZNF446 = zn446_human ZNF446 (UniProt Q9NWS9)
lnx1_human LNX1 = lnx1_human LNX1 (UniProt Q8TBB1)
ck068_human C11orf68 = ck068_human C11orf68 (UniProt Q9H3H3)
traf4_human TRAF4 = molecular target: T2, traf4_human TRAF4 (UniProt Q9BUZ4)
T2 sequence: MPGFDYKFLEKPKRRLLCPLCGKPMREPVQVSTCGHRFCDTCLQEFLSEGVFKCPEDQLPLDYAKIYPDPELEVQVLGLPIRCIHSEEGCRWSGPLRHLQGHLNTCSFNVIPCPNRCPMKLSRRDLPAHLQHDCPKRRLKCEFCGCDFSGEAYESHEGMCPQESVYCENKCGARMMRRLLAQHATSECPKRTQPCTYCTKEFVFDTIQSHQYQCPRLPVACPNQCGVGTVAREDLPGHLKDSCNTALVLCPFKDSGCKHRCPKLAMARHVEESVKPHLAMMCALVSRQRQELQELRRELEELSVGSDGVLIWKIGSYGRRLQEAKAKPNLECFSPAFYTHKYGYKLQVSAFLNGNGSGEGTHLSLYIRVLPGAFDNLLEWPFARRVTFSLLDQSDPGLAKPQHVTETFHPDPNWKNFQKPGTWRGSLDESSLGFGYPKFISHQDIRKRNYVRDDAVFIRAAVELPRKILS

Zinc finger protein 785 (Homo sapiens), A8K8V0 R212C, sequence (A8K8V0 whole entry R212C): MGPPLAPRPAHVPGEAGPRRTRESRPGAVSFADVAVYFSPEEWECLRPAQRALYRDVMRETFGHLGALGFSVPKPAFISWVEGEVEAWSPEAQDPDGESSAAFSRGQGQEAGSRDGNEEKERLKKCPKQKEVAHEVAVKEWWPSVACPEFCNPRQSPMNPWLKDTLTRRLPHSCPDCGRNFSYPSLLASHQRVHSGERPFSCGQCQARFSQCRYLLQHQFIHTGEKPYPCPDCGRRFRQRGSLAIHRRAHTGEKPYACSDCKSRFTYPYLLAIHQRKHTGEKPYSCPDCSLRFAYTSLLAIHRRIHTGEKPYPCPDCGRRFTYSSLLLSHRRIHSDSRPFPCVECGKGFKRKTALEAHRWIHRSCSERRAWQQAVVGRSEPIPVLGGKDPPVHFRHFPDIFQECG
Zinc finger protein 397 (Homo sapiens), Q8NF99 P169S, sequence (Q8NF99 whole entry P169S): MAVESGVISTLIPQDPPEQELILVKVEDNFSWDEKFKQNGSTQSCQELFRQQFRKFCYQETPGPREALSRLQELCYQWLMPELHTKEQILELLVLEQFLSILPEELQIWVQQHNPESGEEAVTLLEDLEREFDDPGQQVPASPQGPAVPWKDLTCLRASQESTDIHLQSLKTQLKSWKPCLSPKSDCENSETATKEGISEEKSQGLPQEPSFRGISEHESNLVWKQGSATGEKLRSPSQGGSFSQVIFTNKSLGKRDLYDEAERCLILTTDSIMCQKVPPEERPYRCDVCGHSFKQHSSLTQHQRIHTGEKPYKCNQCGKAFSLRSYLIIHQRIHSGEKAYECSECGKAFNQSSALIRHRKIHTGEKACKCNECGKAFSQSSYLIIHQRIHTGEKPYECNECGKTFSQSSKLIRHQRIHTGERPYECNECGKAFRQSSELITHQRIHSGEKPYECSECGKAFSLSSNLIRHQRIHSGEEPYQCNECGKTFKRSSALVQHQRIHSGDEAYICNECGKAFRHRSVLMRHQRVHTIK

## Dihydropyrimidinase-related protein 2 (Homo sapiens) (from UniProt Q16555-1) R481C
dpyl5_human DPYSL5 [1]
  effect of a mutation on the interaction: with no effect
gors2_human GORASP2 [2]
  effect of a mutation on the interaction: disrupting interaction strength
dpyl3_human DPYSL3 [3]
  effect of a mutation on the interaction: disrupting interaction strength
dpyl2_human DPYSL2
  effect of a mutation on the interaction: disrupting interaction strength

## Zinc finger protein 785 (Homo sapiens), A8K8V0 R212C
trim1_human MID2
  effect of a mutation on the interaction: with no effect
mtus2_human MTUS2
  effect of a mutation on the interaction: with no effect

## Dihydropyrimidinase-related protein 2 (Homo sapiens) (from UniProt Q16555) A267S
gors2_human GORASP2 [4]
  effect of a mutation on the interaction: with no effect
dpyl5_human DPYSL5 [5]
  effect of a mutation on the interaction: with no effect
dpyl3_human DPYSL3 [6]
  effect of a mutation on the interaction: with no effect

## Cartilage oligomeric matrix protein (Homo sapiens), P49747 N386D
otx1_human OTX1
  effect of a mutation on the interaction: with no effect

## Zinc finger protein 302 (Homo sapiens), Q9NR11 R391H
cep70_human CEP70
  effect of a mutation on the interaction: with no effect

## Isoform 1 of NEDD4-like E3 ubiquitin-protein ligase WWP2 (Homo sapiens), O00308-1 V717M
fxl18_human FBXL18
  effect of a mutation on the interaction: with no effect
erep1_human ENTREP1
  effect of a mutation on the interaction: with no effect
pdli7_human PDLIM7
  effect of a mutation on the interaction: with no effect
hnrl1_human HNRNPUL1
  effect of a mutation on the interaction: with no effect

## Zinc finger protein 397 (Homo sapiens), Q8NF99 P169S
zn446_human ZNF446
  effect of a mutation on the interaction: with no effect

## Eukaryotic translation initiation factor 4H (Homo sapiens), Q15056 G164V
lnx1_human LNX1
  effect of a mutation on the interaction: with no effect
ck068_human C11orf68
  effect of a mutation on the interaction: with no effect

## Large ribosomal subunit protein bL28m (Homo sapiens) (from UniProt Q13084) D160E
traf4_human TRAF4
  effect of a mutation on the interaction: with no effect
